The target of experiment [1] is human serum albumin (human) (UniProt P02768). In words: primary solution ELISA screen.
Experiment [2] shares this target. The experiment can be described thus: solution ELISA screen (luminescence).

Residue numbers refer to the chain shown, from its start.

Chain of human serum albumin (human) (P02768 25-609 limits assumed): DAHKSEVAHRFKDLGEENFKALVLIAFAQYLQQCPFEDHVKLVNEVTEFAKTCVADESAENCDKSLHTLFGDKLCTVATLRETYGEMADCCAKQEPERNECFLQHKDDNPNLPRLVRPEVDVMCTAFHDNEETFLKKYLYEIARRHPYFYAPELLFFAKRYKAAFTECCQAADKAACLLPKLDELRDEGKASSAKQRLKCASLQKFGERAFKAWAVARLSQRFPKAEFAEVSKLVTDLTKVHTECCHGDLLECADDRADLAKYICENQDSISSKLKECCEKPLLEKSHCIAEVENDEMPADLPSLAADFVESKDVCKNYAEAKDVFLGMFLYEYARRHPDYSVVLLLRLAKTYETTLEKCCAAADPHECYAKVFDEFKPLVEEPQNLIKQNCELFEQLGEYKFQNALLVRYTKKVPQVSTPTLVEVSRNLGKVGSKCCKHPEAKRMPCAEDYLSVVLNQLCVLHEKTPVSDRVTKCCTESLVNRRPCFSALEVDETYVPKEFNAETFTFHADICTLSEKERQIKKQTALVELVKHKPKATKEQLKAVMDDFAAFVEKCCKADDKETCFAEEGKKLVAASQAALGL

B1: SEQ ID NO 27 (designed binder, not shown: small tags and cut ends)
chain: MLPAPKNLVVSRVTEDSARLSWTAPDAAFDSFRISYAETVRQGEAIVLTVPGSERSYDLTVETGYRNWVMILGVKGGPGSLPLSAIFTT
In experiment [1], B1 yielded an RLU of 2350 RLU.

B2: SEQ ID NO 268 (designed binder, not shown: small tags and cut ends)
chain: MLPAPKNLVVSRVTEDSARLSWTAPDAAFDSFYIAYAEPRPDGEAIYLEVPGSERSYDLTGLKPGTEYSVLIHGVKGGLLSSPLFTT
On to B2, for which the RLU in experiment [2] turned out to be 117000 RLU.

B3: SEQ ID NO 29 (designed binder, not shown: small tags and cut ends)
chain: MLPAPKNLVVSRVTEDSARLSWTAPDAAFDSFWIEYWEAVGFGEAIVLTVPGSERSYDLTGLKPGTEYFVGIYGVKGGYLSAPLSAIFTT
Molecule B3 showed an RLU in experiment [1] of 3750 RLU.

B4: SEQ ID NO 204 (designed binder, not shown: small tags and cut ends)
chain: MLPAPKNLVVSRVTEDSARLSWTAPDAAFDSFFIGYLEPQPPGEAILLWVPGSERSYDLTGLKPGTEYNVTIQGVKGGFPSQFTT
In turn, B4 showed an RLU in experiment [2] of 20000 RLU.

B5: SEQ ID NO 35 (designed binder, not shown: small tags and cut ends)
chain: MLPAPKNLVVSRVTEDSARLSWTAPDAAFDSFPISYIESIADGEAIVLTVPGSERSYDLTGLKPGTEYWVAIVGVKGGPFSWSLSAIVTT
B5 showed an RLU in experiment [1] of 18800 RLU.

B6: SEQ ID NO 242 (designed binder, not shown: small tags and cut ends)
chain: MLPAPKNLVVSRVTEDSARLSWTAPDAAFDSFYIAYAEPRPDGEAIQLLVPGSERSYDLTGLKPGTEYSVLIHGVKGGLLSSPLYAAFTT
With B6, the RLU in experiment [2] is 20400 RLU.

B7: SEQ ID NO 249 (designed binder, not shown: small tags and cut ends)
chain: B6 chain with Q47V, L49E, Y85H, A87N
Molecule B7 came in with an RLU in experiment [2] of 24100 RLU.

B8: SEQ ID NO 250 (designed binder, not shown: small tags and cut ends)
chain: B6 chain with Q47L, L49R, A87K
In turn, B8 yielded an RLU in experiment [2] of 48400 RLU.

B9: SEQ ID NO 248 (designed binder, not shown: small tags and cut ends)
chain: B6 chain with Q47W, L49G, Y85H, A87T
The molecule B9 gave an RLU in experiment [2] of 34000 RLU.

B10: SEQ ID NO 266 (designed binder, not shown: small tags and cut ends)
chain: B6 chain with Q47R, L49Q, Y85G, A87S
In experiment [2], B10 showed an RLU of 36200 RLU.

B11: SEQ ID NO 258 (designed binder, not shown: small tags and cut ends)
chain: B6 chain with Q47L, L49E, Y85V, A87F
For B11, in experiment [2], the RLU came out at 26500 RLU.

B12: SEQ ID NO 254 (designed binder, not shown: small tags and cut ends)
chain: B6 chain with Q47L, L49A, Y85S, A87K
Take B12: the RLU in experiment [2] came to 21500 RLU.

B13: SEQ ID NO 244 (designed binder, not shown: small tags and cut ends)
chain: B6 chain with Q47S, L49Q, Y85G, A87H
Take B13: the RLU in experiment [2] was determined as 18000 RLU.

B14: SEQ ID NO 245 (designed binder, not shown: small tags and cut ends)
chain: B6 chain with Q47A, L49W, Y85V, A87S
For the molecule B14, the RLU in experiment [2] was 18400 RLU.

B15: SEQ ID NO 246 (designed binder, not shown: small tags and cut ends)
chain: B6 chain with L49H, A87F
B15 had an RLU in experiment [2] of 25800 RLU.

B16: SEQ ID NO 257 (designed binder, not shown: small tags and cut ends)
chain: B6 chain with L49G, Y85R, A87Y
As to B16, the RLU in experiment [2] amounted to 29800 RLU.

B17: SEQ ID NO 253 (designed binder, not shown: small tags and cut ends)
chain: B6 chain with Q47I, L49H, Y85D, A87Y
Take B17: the RLU in experiment [2] turned out to be 37700 RLU.

B18: SEQ ID NO 265 (designed binder, not shown: small tags and cut ends)
chain: B6 chain with Q47V, L49E, Y85T, A87S
With B18, the RLU in experiment [2] came to 30700 RLU.

B19: SEQ ID NO 264 (designed binder, not shown: small tags and cut ends)
chain: B6 chain with Q47N, L49S, Y85D, A87Y
For the molecule B19, the RLU in experiment [2] is 24400 RLU.

B20: SEQ ID NO 269 (designed binder, not shown: small tags and cut ends)
chain: B6 chain with Q47W, L49D, Y85D, A87Y
With B20, the RLU in experiment [2] came out at 19900 RLU.

B21: SEQ ID NO 256 (designed binder, not shown: small tags and cut ends)
chain: B6 chain with L49T, Y85H, A87Y
Molecule B21 showed an RLU in experiment [2] of 76100 RLU.

B22: SEQ ID NO 247 (designed binder, not shown: small tags and cut ends)
chain: B6 chain with Q47L, L49H, Y85R, A87S
In turn, B22 showed an RLU in experiment [2] of 19000 RLU.

B23: SEQ ID NO 263 (designed binder, not shown: small tags and cut ends)
chain: B6 chain with Q47A, L49V, Y85A, A87N
In experiment [2], B23 showed an RLU of 23800 RLU.

B24: SEQ ID NO 252 (designed binder, not shown: small tags and cut ends)
chain: B6 chain with Q47V, L49H, Y85D, A87F
In experiment [2], B24 had an RLU of 72800 RLU.

B25: SEQ ID NO 262 (designed binder, not shown: small tags and cut ends)
chain: B6 chain with Q47V, L49H, Y85Q, A87I
Regarding B25, the RLU in experiment [2] amounted to 30900 RLU.

B26: SEQ ID NO 267 (designed binder, not shown: small tags and cut ends)
chain: B6 chain with Q47G, L49W, Y85V, A87Y
On to B26, for which, in experiment [2], the RLU was 29800 RLU.

B27: SEQ ID NO 259 (designed binder, not shown: small tags and cut ends)
chain: B6 chain with L49G, Y85L, A87V
B27: the RLU in experiment [2] came out at 25400 RLU.

B28: SEQ ID NO 261 (designed binder, not shown: small tags and cut ends)
chain: B6 chain with Q47L, L49Q, Y85I, A87K
Consider B28, for which the RLU in experiment [2] turned out to be 174000 RLU.

B29: SEQ ID NO 30 (designed binder, not shown: small tags and cut ends)
chain: MLPAPKNLVVSRVTEDSARLSWTAPDAAFDSFIIHYVEQQLIGEAIVLTVPGSERSYDLTGLKPGTEYPVPITGVKGGACSWPLSAIFTT
B29 returned an RLU in experiment [1] of 4450 RLU.

B30: SEQ ID NO 34 (designed binder, not shown: small tags and cut ends)
chain: B29 chain with I33Y, H35T, Q39L, Q40N, I42A, T73L, A79S, C80L, W82Q
B30: the RLU in experiment [1] was 8100 RLU.

B31: SEQ ID NO 31 (designed binder, not shown: small tags and cut ends)
chain: MLPAPKNLVVSRVTEDSARLSWTAPDAAFDSFTIEYSEHPIDGEAIPLFVPGSERSYDLTGLKPGTEYYVRIHGVKGGWFSHPLWAFFTT
As to B31, the RLU in experiment [1] was 4650 RLU.

B32: SEQ ID NO 32 (designed binder, not shown: small tags and cut ends)
chain: MLPAPKNLVVSRVTEDSARLSWQGVARAFDSFLITYREQIFAGEVIVLTVPGSERSYDLTGLKPGTEYGVTIAGVKGGWRSKPLNAESTT
The molecule B32 came in with an RLU in experiment [1] of 4550 RLU.

B33: SEQ ID NO 33 (designed binder, not shown: small tags and cut ends)
chain: MLPAPKNLVVSRVTEDSARLSWTAPDAAFDSFGIAYVESYWYGEAIVLTVPGSERSYDLTGLKPGTEYNVPIYGVKGGDGSGPLSAIFTT
On to B33, for which the RLU in experiment [1] turned out to be 2050 RLU.

B34: SEQ ID NO 25 (designed binder, not shown: small tags and cut ends)
chain: MLPAPKNLVVSRVTEDSARLSWTAPDAAFDSFPIWYLEKSYQGEAIVLTVPGSERSYDLTGLKPGTEYVVPIIGVKGGRDSCPLSAIFTT
Molecule B34 came in with an RLU in experiment [1] of 3850 RLU.

B35: SEQ ID NO 22 (designed binder, not shown: small tags and cut ends)
chain: MLPAPKNLVVSRVTEDSARLSWTAPDAAFDSFWYLELQFAGEAIVLTVPGSERSYDLTGLKPGTEYNVPITGVKGGIISFPLSAIFTT
B35 came in with an RLU in experiment [1] of 30000 RLU.

B36: SEQ ID NO 23 (designed binder, not shown: small tags and cut ends)
chain: MLPAPKNLVVSRVTEDSARLSWTAPDAAFDSFAIWYHEWYGDGEAIVLTVPGSERSYDLTGPKPGTEYRVRISGVKGGFESGPLSAIFTT
On to B36, for which the RLU in experiment [1] came out at 12600 RLU.

B37: SEQ ID NO 241 (designed binder, not shown: small tags and cut ends)
chain: MLPAPKNLVVSRVTEDSARLSWTAPDAAFDSFFIGYLEPQPPGEAIHLGVPGSERSYDLTGLKPGTEYNVTIQGVKGGFPSIPLFASFTT
Molecule B37 returned an RLU in experiment [2] of 26600 RLU.

B38: SEQ ID NO 203 (designed binder, not shown: small tags and cut ends)
chain: B37 chain with H47V, G49L, I82V, F85A, S87F
In turn, B38 returned an RLU in experiment [2] of 26000 RLU.

B39: SEQ ID NO 251 (designed binder, not shown: small tags and cut ends)
chain: B37 chain with H47G, G49W, I82D, F85Q, S87V
As for B39, in experiment [2], the RLU was found to be 26100 RLU.

B40: SEQ ID NO 243 (designed binder, not shown: small tags and cut ends)
chain: B37 chain with G49A, I82V, F85A, S87V
In turn, B40 yielded an RLU in experiment [2] of 30900 RLU.

B41: SEQ ID NO 260 (designed binder, not shown: small tags and cut ends)
chain: B37 chain with F33Y, G35A, L37A, Q40R, P42D, G49R, I82M, F85S, S87I
With B41, in experiment [2], the RLU worked out at 33400 RLU.

B42: SEQ ID NO 255 (designed binder, not shown: small tags and cut ends)
chain: B37 chain with H47L, G49F, I82T, F85S
In the case of B42, in experiment [2], the RLU was determined as 102000 RLU.

B43: SEQ ID NO 270 (designed binder, not shown: small tags and cut ends)
chain: MLPAPKNLVVSRVTEDSARLSWTAPDAAFDSFAIEYCETKMCGEAIVLTVPGSERSYDLTGLKPGTEYRVPIPGVKGGTASLPLSAIFTT
In experiment [2], B43 yielded an RLU of 64400 RLU.

B44: SEQ ID NO 3 (designed binder, not shown: small tags and cut ends)
chain: B43 chain with A33N, C37A, K40R, M41W, C42Y, R69V, P73D, T79I, L82K
B44: the RLU in experiment [1] was determined as 9950 RLU.

B45: SEQ ID NO 24 (designed binder, not shown: small tags and cut ends)
chain: MLPAPKNLVVSRVTEDSARLSWTAPDAAFDSFMIRYQEGTRWGEAIVLTVPGSERSYDLTGLKPGTEYIVMIAGVKGGQISLPLSAIFTT
In the case of B45, the RLU in experiment [1] was 6550 RLU.
